The test addresses Von Willebrand factor (VWF) (UniProt P04275). Nature of the test: ELISA. On the technique in general: An ELISA detects its analyte on a solid surface through an enzyme-linked reagent.
What is called Kd is the equilibrium constant for the complex coming apart. Low readings indicate tighter binding, high ones weaker binding. Take “FVIII 336(P4-P3')562 variant (B-domainless) (natural protein)”: the Kd turned out to be 0.82 nM.

Consider “FVIII 336(P4-P3')562/Ala108Ile variant (B-domainless) (natural protein)”, for which the Kd was 0.91 nM.

In turn, “FVIII 336(P4-P3')562/Ala108Ile/Asp519Val/Glu665Val variant (B-domainless) (natural protein)” came in with a Kd of 1 nM.

Turning to “FVIII 336(P4-P3')562/Asp519Val/Glu665Val variant (B-domainless) (natural protein)”, the Kd came to 0.87 nM.

Substance “FVIII Ala108Ile variant (B-domainless) (natural protein)” showed a Kd of 0.97 nM.

Substance “FVIII Asp519Val/Glu665Val variant (B-domainless) (natural protein)” had a Kd of 0.9 nM.

In the case of “WT FVIII (B-domainless factor VIII, lacking residues Gln744-Ser1637) (natural protein)”, the Kd was determined as 0.95 nM.

Values taken from article PMC4470385.
